In patent US20200277377A1 (WUXI BIOLOGICS SHANGHAI, published 2020):
Residue numbers refer to the chain shown, from its start.

T1: human CTLA-4 (Example 3 ELISAs, construct not stated) (human, UniProt P16410 36-161)
T1 sequence (looked up): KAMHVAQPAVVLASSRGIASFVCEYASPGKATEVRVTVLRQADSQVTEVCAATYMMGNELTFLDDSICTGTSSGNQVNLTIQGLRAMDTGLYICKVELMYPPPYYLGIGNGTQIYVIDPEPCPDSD

T2: full length human CTLA-4 on cells (human, UniProt P16410 36-223)
T2 construct: whole, on cells; also called CTLA-4-expressing cell line
T2 sequence (looked up): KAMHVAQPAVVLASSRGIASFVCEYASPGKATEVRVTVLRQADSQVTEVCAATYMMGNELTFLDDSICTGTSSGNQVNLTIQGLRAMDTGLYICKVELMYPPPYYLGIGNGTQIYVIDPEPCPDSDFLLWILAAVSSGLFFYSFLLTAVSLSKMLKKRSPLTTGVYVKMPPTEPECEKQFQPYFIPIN

T3: biotinylated human CTLA-4 (Example 3 FACS competition) (human, UniProt P16410 36-161, limits assumed, biotinylated (sites not given))
T3 sequence (looked up): T1 sequence (looked up)

T4: monkey CTLA-4 (Example 3 ELISA, construct not stated) (cynomolgus monkey, UniProt G7PL88 36-161)
T4 construct: also called cyno CTLA-4
T4 sequence: T1 sequence (looked up) with S14N, I18T, L106M

T5: human CTLA-4.ECD-6×His (human, UniProt P16410 36-161)
T5 construct: extracellular domain; also called WBP316.hCTLA-4.ECD-6×His; hCTLA4-His (WT)
T5 sequence: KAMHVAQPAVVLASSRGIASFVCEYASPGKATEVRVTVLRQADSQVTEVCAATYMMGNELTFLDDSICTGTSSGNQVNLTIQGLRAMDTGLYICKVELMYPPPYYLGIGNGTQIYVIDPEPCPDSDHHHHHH

B1: W3162-1.145.10 xAb.IgG1 (antibody, V domains shown)
VH: EVQLVESGGGLVQPGRSLKLSCAASDLTFSNYDMAWVRQTPTKGLEWVASISPNGGNTYYRDSVKGRFTVSRDNAKNSLYLQMDSLRSEDTATYYCARHLWFAYWGQGTLVTVSS
VL: DIQMTQSPSSMSASLGDRVTISCQASQDIGSNLIWFQQKPGKSPRPMIYYATHLADGVPSRFSGSRSGSDYSLTISSLESEDVADYHCLQYKQYPRTFGGGTKLELK
notes: Chimeric: rat variable regions fused with constant region of human antibody (label xAb.IgG1)
B2: W3162-1.154.8 xAb.IgG1 (antibody, V domains shown)
VH: EVQLQQSGPEAGRPGSSVKISCKASGYTFTNYFMNWVKQSPGQGLEWIGRVDPENGRADYAEKFKKKATLTADTTSNTAYIHLSSLTSEDTATYFCARRAMDNYGFAYWGQGTLVTVSS
VL: EIMLTQSPTIMAASLGEKITITCSANSSLSYMYWFQQKSGASPKLWVHGTSNLASGVPDRFSGSGSGTSYYLTINTMEAEDAATYFCHHWSNTQWTFGGGTKLELK
notes: as for B1
B3: W3162-1.146.19 xAb.IgG1 (antibody, V domains shown)
VH: EVQLQESGPGLVKPSQSLSLTCSVTYHTITSGYDWTWIRKFPGNQMEWMGYISYSGNTNYNPSLKSRISITRDTSKNQFFLHLNSVTSEDTATYYCASMMVPHYYVMDAWGQGASVTVSS
VL: DVVLTQTPPTSSATIGQSVSISCRSSQSLLNSDGNTYLYWYLQRPSQSPQLLIYLVSKLGSGVPNRFSGSGSGTDFTLKISGVEAEDLGLYYCVQGTHDPWTFGGGTKLELK
notes: as for B1
B4: W3162-1.101.2 xAb.IgG1 (antibody, V domains shown)
VH: EEQLVESGGGLVQPGKSLKLSCSASGFTFRSSAMHWIRQPPGKGLDWVAFISSGGDTAYADAVKGRFIVSRDNAENTLFLQLNSLKSEDTAIYYCVRMERIPTWGQGVMVTVSS
VL: DIVLTQSPVLAVSLGQRATISCRASQSVSISSINLIHWYQQRPGQQPKLLIYRTSNLASGIPARFSGSGSGTDFTLSIDPVQADDVADYYCQQSRESPLTFGSGTKLEIK
notes: as for B1
B5: W3162_1.145.10-z7-uAb.IgG1K (antibody, V domains shown)
VH: B1 VH with R16G, K19R, T40A, T42G, N54S, V70I, D84N, S88A, T93V
VL: DIQMTQSPSSLSASVGDRVTITCQASQDIGSNLIWFQQKPGKAPKPMIYYATHLADGVPSRFSGSRSGTDYTLTISSLQPEDFATYYCLQYKQYPRTFGGGTKVEIK
notes: Humanized; label says IgG1K; also called W145

Target: T1, human CTLA-4 (Example 3 ELISAs, …)
Assay: competition ELISA: coated human CTLA-4, antibody mixed with biotinylated CD80, bound ligand detected with streptavidin-HRP [A) CD80]
Experimental: (§1) Both ELISA and FACS were used as the competition assays. In ELISA based competition assay, human CTLA-4 was coated on the plates, and the antibodies mixed with biotinylated ligands were added into the plate. The bound ligands were detected by HRP conjugated streptavidin.

IC50 (read off the curve) [nM] | Binder
~0.3 | B1
~0.3 | B2
~0.7 | B3

Target: T1, human CTLA-4 (Example 3 ELISAs, …)
Assay: ELISA, antibody titrated on human CTLA-4, OD450
Experimental: (§2) The antibodies were tested on CTLA-4-binding ELISA.
(§3) ELISA was used to test binding of anti-human CTLA-4 antibodies to human, murine and cynomolgus monkey CTLA-4 protein. A 96-well plate was coated with human CTLA-4.ECD-6×His (1.0 μg/mL), cynomoguls monkey CTLA-4.ECD-6×His (0.5 μg/mL) or mouse CTLA-4.ECD-6×His (0.5 μg/mL) at 4° C. for 16-20 hours. After 1 hour blocking with 2% BSA in DBPS, testing antibodies, as well as positive and negative control antibodies were added to the plates and incubated at room temperature for 1 hour. The binding of the antibodies to the plates were detected by HRP-conjugated goat anti-human IgG antibody (1:5000 dilution) with 1 hour incubation. The color was developed by dispensing 100 μL of TMB substrate for 8 mins, and then stopped by 100 μL of 2N HCl.

EC50 (read off the curve) [nM] | Binder
~0.01 | B1
~0.04 | B4
~0.05 | B2
~0.04 | B3

Target: T6, murine CTLA-4 (Example 3 ELISA, construct not stated) (mouse, UniProt P09793 36-161, limits assumed)
T6 construct: also called mouse CTLA-4
Assay: ELISA; ELISA, murine CTLA-4
Experimental: as §2, §3

EC50 [nM] | Binder
0.01 | B3

Target: T2, full length human CTLA-4 on cells
Assay: FACS on CTLA-4-expressing cell line

EC50 [nM] | Binder
1.26 | B2
3.25 | B3

Target: T3, biotinylated human CTLA-4 (Example 3 …)
Assay: competition FACS: antibody mixed with biotinylated human CTLA-4, added to CD86-expressing cells (panel title W316-CHO-K1.hPro1.L2), bound CTLA-4 detected with streptavidin-PE [B]
Experimental: as §1
(§4) Then the mixtures of antibody and CTLA-4 were added to the cells and incubated for 1 hour at 4° C. The cells were washed two times with 200 μL FACS buffer (DPBS containing 1% BSA). Streptavidin PE 1 to 333 diluted in FACS buffer was added to the cells and incubated at 4° C. for 1 hour.

IC50 (read off the curve) [nM] | Binder
~0.3 | B1
~20 | B4
~0.08 | B2
~1 | B3

Target: T4, monkey CTLA-4 (Example 3 ELISA, …)
Assay: ELISA, antibody titrated on cyno CTLA-4, OD450
Experimental: as §2, §3

EC50 (read off the curve) [nM] | Binder
~0.1 | B1
~0.1 | B4
~0.08 | B2
~0.1 | B3

Target: T1, human CTLA-4 (Example 3 ELISAs, …)
Assay: competition ELISA: coated human CTLA-4, antibody mixed with biotinylated CD86, bound ligand detected with streptavidin-HRP [B) CD86]
Experimental: as §1
Plates were coated with human CTLA-4.ECD.hFc (0.5 μg/mL) at 4° C. for 16-20 hours. […] After washing three times with PBS containing 0.05% Tween 20, biotinylated anti-His tag antibody was 1:2000 diluted and added. The plates were incubated at room temperature for 1 hour. The bound ligands were detected by HRP conjugated streptavidin (1:20000).

IC50 (read off the curve) [nM] | Binder
~0.4 | B1
~0.5 | B4
~0.4 | B2
~0.8 | B3

Target: T7, Murine CTLA-4.ECD-6×His (mouse, UniProt P09793 36-161)
T7 construct: extracellular domain; Bought; also called mouse CTLA-4.ECD-6×His; mouse CTLA-4 ECD
Assay: SPR, antibody captured on anti-human Fc, CTLA-4.ECD-6×His as analyte, 1:1 fit
Experimental: (§5) Biacore T200, Series S Sensor Chip CMS, Amine Coupling Kit, and 10×HBS-EP were purchased from GE Healthcare. […] In immobilization step, the activation buffer was prepared by mixing 400 mM EDC and 100 mM NHS immediately prior to injection. The CM5 sensor chip was activated for 420 s with the activation buffer. 30 μg/mL of goat anti-human IgG Fcγ antibody in 10 mM NaAc (pH 4.5) was then injected to Fc1-Fc4 channels for 200 s at a flow rate of 5 μL/min. The chip was deactivated by 1 M ethanolamine-HCl (GE). Then the antibodies were captured on the chip. Briefly, 4 μg/mL antibodies in running buffer (HBS-EP+) was injected individually to Fc3 channel for 30 s at a flow rate of 10 μL/min. […] Regeneration buffer (10 mM Glycine pH 1.5) was injected at 10 μL/min for 30 s following every dissociation phase.
(§6) The binding kinetics of these antibodies were measured using SPR. The antibodies were captured on immobilized anti-human Fc and CTLA-4-ECD at different concentration was injected orderly. The sensorgrams for reference channel and buffer channel were subtracted from the test sensorgrams. The data was used for 1:1 binding analysis on human, monkey and mouse CTLA-4.ECD-6×His.

Kd [nM] | koff [s⁻¹] | kon [M⁻¹ s⁻¹] | Binder
0.906 | 0.000228 | 251000 | B3

Target: T5, human CTLA-4.ECD-6×His
Assay: as above
Experimental: as §5, §6

Kd [nM] | koff [s⁻¹] | kon [M⁻¹ s⁻¹] | Binder
2.08 | 0.0165 | 7.93e+06 | B1
1.84 | 0.0135 | 7.37e+06 | B5
0.068 | 0.000125 | 1.85e+06 | B2
0.208 | 0.000148 | 709000 | B3

Target: T8, cynomolgus monkey CTLA-4 ECD-6×His (cynomolgus monkey)
T8 construct: extracellular domain; Bought; also called cynomoguls monkey CTLA-4.ECD-6×His
Assay: as above
Experimental: as §5, §6

Kd [nM] | koff [s⁻¹] | kon [M⁻¹ s⁻¹] | Binder
0.355 | 0.00377 | 1.06e+07 | B1
0.598 | 0.00271 | 4.52e+06 | B5
0.0872 | 0.000109 | 1.25e+06 | B2
0.369 | 0.000107 | 291000 | B3

Target: T3, biotinylated human CTLA-4 (Example 3 …)
Assay: competition FACS: antibody mixed with biotinylated human CTLA-4, added to CD80-expressing cells (panel title W316-CHO-K1.hPro1.L1), bound CTLA-4 detected with streptavidin-PE [A]
Experimental: as §1, §4

IC50 (read off the curve) [nM] | Binder
~1 | B1

Target: T5, human CTLA-4.ECD-6×His
Assay: SPR, antibody captured on anti-human Fc, CTLA-4 ECD as analyte, 1:1 fit
Experimental: The binding kinetics of four antibodies were measured using SPR. The antibodies were captured on immobilized goat anti-human Fc, and then human CTLA-4 ECD at different concentration was injected orderly. The sensorgrams for reference channel and buffer channel were subtracted from the test sensorgrams. The data was used to fit in 1:1 binding analysis.
as §5

Kd [nM] | koff [s⁻¹] | kon [M⁻¹ s⁻¹] | Binder
2.08 | 0.0165 | 7.93e+06 | B1
0.1 | 6.97e-05 | 695000 | B4
0.068 | 0.000125 | 1.85e+06 | B2
0.208 | 0.000148 | 709000 | B3

Target: T6, murine CTLA-4 (Example 3 ELISA, …)
Assay: ELISA, antibody titrated on mouse CTLA-4, OD450
Experimental: as §2, §3

binding result | Binder
no binding (tested: about 20 nM) | B1
no binding (tested: about 20 nM) | B4
no binding (tested: about 20 nM) | B2
